According to PMC5179029, “Selection and Characterization of Tau Binding ᴅ-Enantiomeric Peptides with Potential for Therapy of Alzheimer Disease” (PLoS ONE, 2016):
Square brackets hold non-standard residues; d marks the D form. Ends that are not written are not given here. * marks the point of attachment. 6FAM = O=C1OC2(c3ccc(O)cc3Oc3cc(O)ccc32)c2cc(C(=O)*)ccc21

Assays:
tau (Homo sapiens) = details: cited from earlier work
[1] = system: inducible N2aTau^4RDΔK280 cells; test: Penetration of FAM-labeled peptides into cells (confocal microscopy); assay type: cell-based; design: key to Cell penetration: membrane, 2 hours incubation / Cell penetration: membrane, 4 days incubation / Cell penetration: cytosol, 4 days incubation / Cell penetration: cytosol, 2 hours incubation / Cell penetration: nuclei, 4 days incubation / Cell penetration: nuclei, 2 hours incubation: +: Cell compartments where fluorescence of the label was detected are summarized here
Procedure: The peptides were obtained with a 6-Carboxyfluorescein (FAM) label, linked via a C-terminal lysine, to assay their ability to enter N2a cells expressing a variant of tau protein (construct tau^4RDΔK280, derived from the 4-repeat domain) in a regulatable fashion. The cells were incubated in the presence of the peptides for two hours (short term uptake) and four days (long term uptake and stability) at concentrations of 60 μM. After incubation the cells were fixed on glass cover slips and monitored by a confocal microscope (Fluoview 1000, Olympus). The localizations of the D-peptides were detected by their FAM-label (excitation: 488 nm, emission: 520 nm). In addition, cell nuclei were stained with TOPRO3 dye (excitation: 633 nm, emission: 660–670 nm). Representative pictures were taken with magnifications of 10-times for overview and 60- and 120-times for more detailed analysis.

[2] = target: T1, tau monomers (tau-441, 2N4R) (Homo sapiens, UniProt P10636); test: ELISA binding of FAM-labeled peptides to tau monomers; details: 20 μg/mL FAM-labeled peptide; for Binding to tau monomers (ELISA, in words): 5 μg/mL tau monomers coated, HRP anti-FITC detection; for ELISA signal, ranking among peptides: tau monomers and fibrils
T1 construct: Full lengths tau protein expression and purification; made in house
Procedure: (§1) Tau protein [tau-441 (2N4R) MW 45.9 kDa], purified as described in the main text, was used to prepare tau fibrils, the preparation of the fibrils was performed according to Barghorn et al. with slight modifications: 30 µM tau protein were incubated for 48 hours with 20 µM heparin MW ≈ 5000 (Fisher scientific, Schwerte, Germany) in phosphate-buffered saline (PBS) pH 7.4 at room temperature.
(§2) Polystyrene 96-well microtiter plates (Greiner Bio-One GmbH, Frickenhausen, Germany) were coated with 100 µL/well of tau monomers or fibrils in concentration of 5 µg/mL respectively, followed by incubation for 1 hour at room temperature. As control, PBS pH 7.4 containing 1 % BSA (IgG free) (Roth, Karlsruhe, Germany) was used instead of tau protein solution. After washing three times with PBS-T (phosphate-buffered saline (pH 7.4) with (0.1 %) Tween 20), and blocking for 1 h at room temperature with 1 % BSA (IgG free) (Roth, Karlsruhe, Germany) in PBS, the plate was washed three times with PBS-T. Then the peptides APT-Lys(FAM)-NH2, KNT-Lys(FAM)-NH2, LPS-Lys(FAM)-NH2, TD28-Lys(FAM)-NH2, TD28rev-Lys(FAM)-NH2 as well as d-TLKIVW-Lys(FAM)-NH2 (JPT Peptide Technologies, Berlin, Germany) were dissolved in PBS-T and added at 100 µL/well in concentration of 20 µg/mL, respectively, the plate was allowed to react for 1 h at room temperature in the dark. Subsequently, the plate was washed 3 times with PBS-T, horseradish peroxidase-conjugated sheep anti-FITC secondary antibodies (Bio-Rad, Muenchen, Germany) were diluted 1:5000 in PBS-T; the antibodies were incubated on the plate 1 h at room temperature. After incubation, the plate was washed 3 times with PBS-T. Subsequently, the substrate solution was prepared as follows: 10 mg of 3,3',5,5'-tetramethylbenzidine (TMB) (Roth, Karlsruhe, Germany) was dissolved in 1 ml dimethylsulfoxide (DMSO), 62 µL from TMB solution were mixed with 9 mL distilled water, 1 mL 1 M sodium acetate buffer (pH 6) and 10 µL 3 % hydrogen peroxide. 100 µL of the prepared substrate solution were transferred to the according wells. Finally, the reaction was stopped with 100 µL/well of 20 % H2SO4, and the plate was read at 450 nm (Multiskan GO, Thermo scientific, Germany).

[3] = target: T2, tau fibrils (tau-441, 2N4R, heparin induced) (Homo sapiens, UniProt P10636); test: ELISA binding of FAM-labeled peptides to tau fibrils; details: 5 μg/mL tau fibrils coated, 20 μg/mL FAM-labeled peptide, HRP anti-FITC detection
T2 construct: Full lengths tau protein expression and purification; made in house
Procedure: as §1, §2

[4] = target: tau^3RD (three repeat domain construct of tau protein, K19) (human)
[5] = 60 μM FAM labeled peptide, N2aTau^4RDΔK280 cells, fixed cells, confocal microscope, FAM fluorescence
[6] = 60 μM FAM labeled peptide, N2aTau^4RDΔK280 cells, fixed cells, confocal microscope, FAM fluorescence, nuclei stained with TOPRO3

T2 sequence (P10636 1-441 isoform P10636-8): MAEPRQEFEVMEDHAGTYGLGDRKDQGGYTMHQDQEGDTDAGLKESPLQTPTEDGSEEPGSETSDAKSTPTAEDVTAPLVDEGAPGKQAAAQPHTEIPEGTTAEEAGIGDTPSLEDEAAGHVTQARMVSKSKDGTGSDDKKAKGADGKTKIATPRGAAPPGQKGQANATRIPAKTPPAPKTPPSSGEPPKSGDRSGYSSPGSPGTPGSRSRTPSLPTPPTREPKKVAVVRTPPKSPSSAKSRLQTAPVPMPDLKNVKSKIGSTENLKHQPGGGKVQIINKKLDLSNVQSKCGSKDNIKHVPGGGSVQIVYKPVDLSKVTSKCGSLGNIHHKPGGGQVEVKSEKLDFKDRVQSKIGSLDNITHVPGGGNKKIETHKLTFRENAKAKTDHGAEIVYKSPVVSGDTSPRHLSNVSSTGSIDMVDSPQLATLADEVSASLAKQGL
T1 sequence (P10636 1-441 isoform P10636-8): as above
Chain of tau^3RD (three repeat domain construct of tau protein, K19) (human) (P10636 other isoform, or with tags, fused parts or gaps): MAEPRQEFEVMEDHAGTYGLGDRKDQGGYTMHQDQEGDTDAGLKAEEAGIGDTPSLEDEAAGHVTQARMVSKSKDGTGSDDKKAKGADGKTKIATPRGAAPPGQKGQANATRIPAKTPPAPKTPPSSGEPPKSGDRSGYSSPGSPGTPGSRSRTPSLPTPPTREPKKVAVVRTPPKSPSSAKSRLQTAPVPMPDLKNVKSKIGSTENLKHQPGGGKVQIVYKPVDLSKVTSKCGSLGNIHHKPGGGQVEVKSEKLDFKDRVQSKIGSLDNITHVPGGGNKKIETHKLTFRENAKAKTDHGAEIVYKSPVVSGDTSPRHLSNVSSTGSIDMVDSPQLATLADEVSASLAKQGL

| Molecule | Kd (tau (Homo sapiens)) | Cell penetration: cytosol, 2 hours incubation [1, 5] | Cell penetration: cytosol, 4 days incubation [1, 5] | Cell penetration: membrane, 2 hours incubation [1, 5] | Cell penetration: membrane, 4 days incubation [1, 5] | Cell penetration: nuclei, 2 hours incubation [1, 6] | Cell penetration: nuclei, 4 days incubation [1, 6] | Binding to tau monomers (ELISA, in words) [2] | Binding to tau fibrils (ELISA, in words) [3] | ELISA signal, ranking among peptides [2] | Cell penetration, overall judgement (in words) ([1]; 60 μM FAM-labeled peptide, N2a cells, up to 4 days) | half maximal effect concentration, inhibition of tau^3RD (K19) fibril formation (K19 with K19), ThS fluorescence in vitro [4] |
| --- | --- | --- | --- | --- | --- | --- | --- | --- | --- | --- | --- | --- |
| D-peptide D-TLKIVW | 2000 nM | – | – | – | – | – | – | – | – | – | – | – |
| TD28rev-Lys(FAM)-NH2: TD28rev with 6-Carboxyfluorescein (FAM) label linked via a C-terminal lysine ([dP][dP][dY][dY][dL][dR][dM][dQ][dL][dS][dT][dT]K(6FAM)-NH2; N-terminus assumed; SMILES CSCC[C@@H](NC(=O)[C@@H](CCCNC(=N)N)NC(=O)[C@@H](CC(C)C)NC(=O)[C@@H](Cc1ccc(O)cc1)NC(=O)[C@@H](Cc1ccc(O)cc1)NC(=O)[C@H]1CCCN1C(=O)[C@H]1CCCN1)C(=O)N[C@H](CCC(N)=O)C(=O)N[C@H](CC(C)C)C(=O)N[C@H](CO)C(=O)N[C@@H](C(=O)N[C@@H](C(=O)N[C@@H](CCCCNC(=O)c1ccc2c(c1)C1(OC2=O)c2ccc(O)cc2Oc2cc(O)ccc21)C(N)=O)[C@H](C)O)[C@H](C)O) | – | + | + | + | + | + | + | binding could be demonstrated | binding could be demonstrated | – | – | – |
| KNT-Lys(FAM)-NH2: KNT with 6-Carboxyfluorescein (FAM) label linked via a C-terminal lysine ([dK][dN][dT][dP][dQ][dH][dR][dK][dL][dR][dL][dS]K(6FAM)-NH2; N-terminus assumed; SMILES CC(C)C[C@@H](NC(=O)[C@@H](CCCNC(=N)N)NC(=O)[C@@H](CC(C)C)NC(=O)[C@@H](CCCCN)NC(=O)[C@@H](CCCNC(=N)N)NC(=O)[C@@H](Cc1c[nH]cn1)NC(=O)[C@@H](CCC(N)=O)NC(=O)[C@H]1CCCN1C(=O)[C@H](NC(=O)[C@@H](CC(N)=O)NC(=O)[C@H](N)CCCCN)[C@H](C)O)C(=O)N[C@H](CO)C(=O)N[C@@H](CCCCNC(=O)c1ccc2c(c1)C1(OC2=O)c2ccc(O)cc2Oc2cc(O)ccc21)C(N)=O) | – | + | + | + | + | – | – | binding could be demonstrated | binding could be demonstrated | highest | – | – |
| APT-Lys(FAM)-NH2: APT with 6-Carboxyfluorescein (FAM) label linked via a C-terminal lysine ([dA][dP][dT][dL][dL][dR][dL][dH][dS][dL]G[dA]K(6FAM)-NH2; N-terminus assumed; SMILES CC(C)C[C@@H](NC(=O)[C@@H](CO)NC(=O)[C@@H](Cc1c[nH]cn1)NC(=O)[C@@H](CC(C)C)NC(=O)[C@@H](CCCNC(=N)N)NC(=O)[C@@H](CC(C)C)NC(=O)[C@@H](CC(C)C)NC(=O)[C@H](NC(=O)[C@H]1CCCN1C(=O)[C@@H](C)N)[C@H](C)O)C(=O)NCC(=O)N[C@H](C)C(=O)N[C@@H](CCCCNC(=O)c1ccc2c(c1)C1(OC2=O)c2ccc(O)cc2Oc2cc(O)ccc21)C(N)=O) | – | – | + | + | + | – | – | binding could be demonstrated | binding could be demonstrated | – | worst cell penetration properties | – |
| TD28-Lys(FAM)-NH2: TD28 with 6-Carboxyfluorescein (FAM) label linked via a C-terminal lysine ([dT][dT][dS][dL][dQ][dM][dR][dL][dY][dY][dP][dP]K(6FAM)-NH2; N-terminus assumed; SMILES CSCC[C@@H](NC(=O)[C@@H](CCC(N)=O)NC(=O)[C@@H](CC(C)C)NC(=O)[C@@H](CO)NC(=O)[C@H](NC(=O)[C@H](N)[C@H](C)O)[C@H](C)O)C(=O)N[C@H](CCCNC(=N)N)C(=O)N[C@H](CC(C)C)C(=O)N[C@H](Cc1ccc(O)cc1)C(=O)N[C@H](Cc1ccc(O)cc1)C(=O)N1CCC[C@@H]1C(=O)N1CCC[C@@H]1C(=O)N[C@@H](CCCCNC(=O)c1ccc2c(c1)C1(OC2=O)c2ccc(O)cc2Oc2cc(O)ccc21)C(N)=O) | – | + | + | + | + | – | + | binding could be demonstrated | binding could be demonstrated | highest | – | – |
| TTSLQMRLYYPP [TL28] | – | – | – | – | – | – | – | – | – | – | – | > 200 µM |
